Where “and” joins values, the source holds several entries; their conditions need not be identical. Equal entries are not always repeated.
Target: Death Receptor 5 (UniProt O14763)
Experiment: cell-based or functional assay

Substance	IC50 of cell killing (cell viability, CellTiter-Glo, 24 h), CAPAN-1 cells	IC50 of cell killing (cell viability, CellTiter-Glo, 24 h), Colo 205 cells	IC50 of cell killing (cell viability, CellTiter-Glo, 24 h), H2122 cells	IC50 of cell killing (cell viability, CellTiter-Glo, 24 h), H2228 cells	IC50 of cell killing (cell viability, CellTiter-Glo, 24 h), HT29 cells	IC50 of cell killing (cell viability, CellTiter-Glo, 24 h), HTC15 cells	IC50 of cell killing (cell viability, CellTiter-Glo, 24 h), MDA-BD231 cells	IC50 of cell killing (cell viability, CellTiter-Glo, 24 h), SW948 cells	other results
Conatumumab Multabody (from UniProt P02792 91-175)	0.002 µg/mL and 0.00087 nM	0.16 pM	0.00015 µg/mL and 6.4e-05 nM	0.031 µg/mL and 0.013 nM	0.0024 µg/mL and 0.001 nM	0.00053 µg/mL and 0.00023 nM	0.00071 µg/mL and 0.00031 nM	0.16 pM	
Tigatuzumab Multabody (from UniProt P02792 1-175; P02792 1-175)	0.0026 µg/mL and 0.0011 nM	0.00085 µg/mL and 0.00037 nM	0.00014 µg/mL and 5.9e-05 nM	0.015 µg/mL and 0.0067 nM	0.0084 µg/mL and 0.0037 nM	0.002 µg/mL and 0.00087 nM	0.00052 nM and 0.0012 µg/mL	0.00037 µg/mL and 0.00016 nM	Fold-change of killing IC50, MB vs parental IgG, mass basis, CAPAN-1 cells: > 5000 fold; Fold-change of killing IC50, MB vs parental IgG, mass basis, Colo 205 cells: > 11800 fold; Fold-change of killing IC50, MB vs parental IgG, mass basis, H2122 cells: 2940 fold; Fold-change of killing IC50, MB vs parental IgG, mass basis, H2228 cells: > 651 fold; Fold-change of killing IC50, MB vs parental IgG, mass basis, HT29 cells: > 1190 fold; Fold-change of killing IC50, MB vs parental IgG, mass basis, HTC15 cells: > 5000 fold; Fold-change of killing IC50, MB vs parental IgG, mass basis, MDA-BD231 cells: > 8400 fold; Fold-change of killing IC50, MB vs parental IgG, mass basis, SW948 cells: > 27000 fold; Fold-change of killing IC50, MB vs parental IgG, molar basis, CAPAN-1 cells: > 59300 fold; Fold-change of killing IC50, MB vs parental IgG, molar basis, Colo 205 cells: > 181000 fold; Fold-change of killing IC50, MB vs parental IgG, molar basis, H2122 cells: 45600 fold; Fold-change of killing IC50, MB vs parental IgG, molar basis, H2228 cells: > 10000 fold; Fold-change of killing IC50, MB vs parental IgG, molar basis, HT29 cells: > 18300 fold; Fold-change of killing IC50, MB vs parental IgG, molar basis, HTC15 cells: > 77000 fold; Fold-change of killing IC50, MB vs parental IgG, molar basis, MDA-BD231 cells: > 129000 fold; Fold-change of killing IC50, MB vs parental IgG, molar basis, SW948 cells: > 416000 fold
